Laboratory results: patent US20140315185A1, “METHODS AND COMPOSITIONS FOR IMPROVING SPERM FUNCTIONALITY” (ANDROGENIX LTD., priority 2011, published 2014)

B1: catalase: Bovine catalase (Sigma), used alone without the cholesterol-PEG5000-FITC linker; antioxidant enzyme (protein, listed as Bos taurus)
chain: MADNRDPASDQMKHWKEQRAAQKPDVLTTGGGNPVGDKLNSLTVGPRGPLLVQDVVFTDEMAHFDRERIPERVVHAKGAGAFGYFEVTHDITRYSKAKVFEHIGKRTPIAVRFSTVAGESGSADTVRDPRGFAVKFYTEDGNWDLVGNNTPIFFIRDALLFPSFIHSQKRNPQTHLKDPDMVWDFWSLRPESLHQVSFLFSDRGIPDGHRHMNGYGSHTFKLVNANGEAVYCKFHYKTDQGIKNLSVEDAARLAHEDPDYGLRDLFNAIATGNYPSWTLYIQVMTFSEAEIFPFNPFDLTKVWPHGDYPLIPVGKLVLNRNPVNYFAEVEQLAFDPSNMPPGIEPSPDKMLQGRLFAYPDTHRHRLGPNYLQIPVNCPYRARVANYQRDGPMCMMDNQGGAPNYYPNSFSAPEHQPSALEHRTHFSGDVQRFNSANDDNVTQVRTFYLKVLNEEQRKRLCENIAGHLKDAQLFIQKKAVKNFSDVHPEYGSRIQALLDKYNEEKPKNAVHTYVQHGSHLSAREKANL
B2: cholesterol-PEG5000-FITC-catalase: Bovine catalase covalently labelled with cholesterol-PEG5000-NHS-FITC; 4.0 to 5.4 cholesterol-PEG per catalase monomer (conjugate, UniProt P00432 2-527, looked up)
Catalase: ADNRDPASDQMKHWKEQRAAQKPDVLTTGGGNPVGDKLNSLTVGPRGPLLVQDVVFTDEMAHFDRERIPERVVHAKGAGAFGYFEVTHDITRYSKAKVFEHIGKRTPIAVRFSTVAGESGSADTVRDPRGFAVKFYTEDGNWDLVGNNTPIFFIRDALLFPSFIHSQKRNPQTHLKDPDMVWDFWSLRPESLHQVSFLFSDRGIPDGHRHMNGYGSHTFKLVNANGEAVYCKFHYKTDQGIKNLSVEDAARLAHEDPDYGLRDLFNAIATGNYPSWTLYIQVMTFSEAEIFPFNPFDLTKVWPHGDYPLIPVGKLVLNRNPVNYFAEVEQLAFDPSNMPPGIEPSPDKMLQGRLFAYPDTHRHRLGPNYLQIPVNCPYRARVANYQRDGPMCMMDNQGGAPNYYPNSFSAPEHQPSALEHRTHFSGDVQRFNSANDDNVTQVRTFYLKVLNEEQRKRLCENIAGHLKDAQLFIQKKAVKNFSDVHPEYGSRIQALLDKYNEEKPKNAVHTYVQHGSHLSAREKANL
modifications: cholesterol-PEG5000-FITC label
notes: Bovine catalase covalently labelled with cholesterol-PEG5000-NHS-FITC; 4.0 to 5.4 cholesterol-PEG per catalase monomer

Key:
sperm = conditions: added in sufficient concentration and simultaneously with the H2O2; cited from earlier work
Jurkat cells = assay: Catalase activity assay of treated Jurkat cells; assay type: cell-based, human; conditions: units per 2.5×10^6 cells; incubated at 37° C. for 30 min, then centrifuged and resuspended
Procedure: (§1) Recovery of the cholesterol-PEG5000-FITC-catalase was determined by Coomassie staining and catalase activity assay. For the catalase activity assay, 0.5 μl of test samples and serially diluted bovine catalase (Sigma) were placed in a microtitre plate, and incubated with 50 μl of 10 ng/ml of streptavidin-HRP (Biosource) and 50 μl of TMB substrate (Invitrogen) for 5 min. The plate was read at 450 nm on an EnVision plate reader (PerkinElmer) after stopping the reaction with 50 μl of 2 M sulfuric acid. Catalase activity of the test sample was calculated from the standard curve generated with known concentrations of bovine catalase.
Jurkat cells (ATCC, TIB-152; human T lymphocyte cell line) were cultured in RPMI-1640 media with 10% fetal calf serum. For analysis, cells were removed from culture, centrifuged at 700×g for 5 min, the culture media was removed and cells were resuspended at a concentration of 5×10^7 cells/ml in PBS. […] The Jurkat cells were analyzed by both flow cytometry and catalase activity assay.
The catalase activity of the treated Jurkat cells was measured as described in Example 1. 50 μl of 5×10^7 cells/ml of each test sample was analysed in the assay and the catalase activity contained in each of the Jurkat samples was calculated from the standard curve. […]

bovine sperm [1] = assay: Binding of cholesterol-PEG-catalase to sperm, flow cytometry; assay type: cell-based; conditions: sperm incubated with 3 mg/ml conjugate at 37° C. for 30 min, unbound removed on Percoll PLUS
Procedure: 1.5 ml of bovine sperm in liquid extender was carefully placed on top of 4 ml of 60%_Percoll™ PLUS (GE Healthcare) column, and centrifugated for 20 min at 700×g at 20° C. The resulting purified sperm pellet was resuspended in non-capacitating media (NCM; see Table 2) containing 0.1 mg/ml of BSA to a cell concentration of 5×10^7 ml. 200 μl of the purified sperm was mixed with an equal volume of 3 mg/ml cholesterol-PEG5000-FITC-catalase, and incubated light protected at 37° C. for 30 min. The unbound cholesterol-PEG5000-FITC-catalase was removed by layering 400 μl of sperm/cholesterol-PEG5000-FITC-catalase mixture on the top of 500 μl of 60% Percoll™ PLUS column, followed by centrifugation for 20 min at 700×g at 20° C. The sperm pellet was resuspended in NCM containing 0.1 mg/ml of BSA to a total volume of 400 μl. The binding of cholesterol-PEG5000-FITC-catalase to sperm was analysed by flow cytometry and catalase activity assay. […] The catalase activity of cholesterol-PEG5000-FITC-catalase bound sperm was measured as described in Example 1. 79 units of catalase activity were measured in 2.5×10^6 sperm cells after binding with cholesterol-PEG5000-FITC-catalase, whereas no catalase activity was detected in control sperm without addition of cholesterol-PEG5000-FITC-catalase.

bovine sperm [2] = assay: Catalase activity assay of conjugate-bound sperm; assay type: cell-based; conditions: in 2.5×10^6 sperm cells after binding and removal of unbound conjugate
Procedure: as §1
1.5 ml of bovine sperm in liquid extender was carefully placed on top of 4 ml of 60%_Percoll™ PLUS (GE Healthcare) column, and centrifugated for 20 min at 700×g at 20° C. […] The binding of cholesterol-PEG5000-FITC-catalase to sperm was analysed by flow cytometry and catalase activity assay. […] The catalase activity of cholesterol-PEG5000-FITC-catalase bound sperm was measured as described in Example 1. 79 units of catalase activity were measured in 2.5×10^6 sperm cells after binding with cholesterol-PEG5000-FITC-catalase, whereas no catalase activity was detected in control sperm without addition of cholesterol-PEG5000-FITC-catalase.

Row | Molecule | rescue of H2O2-induced loss of motility (sperm) | catalase activity in Jurkat cells (Jurkat cells) [U] | binding to live sperm (Hoechst 33258 negative) (bovine sperm [1]) | catalase activity of bound sperm (bovine sperm [2]) [units]
1 | N[C@@H](CCC(=O)N[C@@H](CS)C(=O)NCC(=O)O)C(=O)O [glutathione, reference compound] | able to rescue the loss of motility | – | – | –
2 | B1 | able to rescue the loss of motility | 44 | – | –
3 | B2 | – | 66 | approx. 10 fold over background | 79
